Starred links: 1 amine or outer side, 2 acyl side, 3 side chain; linkers in the order of their positions; H or OH if unused. Positions of bridges follow the written chain, without caps; N, C: chain ends. Non-standard residues stand in square brackets, D forms with d. Primed or numbered codes have the meaning given here. B5(17) = 2,2-bis(4-pentenyl)glycine = 2-amino-2-(pent-4-en-1-yl)hept-6-enoic acid, stitching residue, C=CCCCC(CCCC=C)(N[*:1])C(=O)[*:2]; B5(24) = 2-amino-2-(pent-4-en-1-yl)hept-6-enoic acid, 2,2-bis(4-pentenyl)glycine (stitching residue), C=CCCCC(CCCC=C)(N[*:1])C(=O)[*:2]; B5(4) = 2,2-bis(4-pentenyl)glycine = 2-amino-2-(pent-4-en-1-yl)hept-6-enoic acid (stitching residue), C=CCCCC(CCCC=C)(N[*:1])C(=O)[*:2]; PyrS = (S)-1-((allyloxy)carbonyl)-3-aminopyrrolidine-3-carboxylic acid, C=CCOC(=O)N1CC[C@@](N[*:1])(C(=O)[*:2])C1; 6F1NapA = 2-amino-3-(6-fluoronaphthalen-1-yl)propanoic acid, O=C([C@H](Cc1cccc2cc(F)ccc12)N[*:1])[*:2]; B5 = 2-amino-2-(pent-4-en-1-yl)hept-6-enoic acid, C=CCCCC(CCCC=C)(N[*:1])C(=O)[*:2]; Phe(3-F) = N[C@@H](Cc1cccc(F)c1)C(=O)O; Bta = N[C@@H](Cc1csc2ccccc12)C(=O)O; hTyr = N[C@@H](CCc1ccc(O)cc1)C(=O)O; αAllylPro = C=CC[C@@]1(C(=O)O)CCCN1; 4Pal = N[C@@H](Cc1ccncc1)C(=O)O; R8 = C=CCCCCCC[C@@](C)(N)C(=O)O; S8 = C=CCCCCCC[C@](C)(N)C(=O)O
T1: full-length beta-Catenin (Uniprot ID P35222) (Homo sapiens (Human), UniProt P35222 1-781)
T1 construct: The assay text says 'full-length beta-Catenin (Uniprot ID P35222)'; also called bCat; B-Catenin
T1 sequence: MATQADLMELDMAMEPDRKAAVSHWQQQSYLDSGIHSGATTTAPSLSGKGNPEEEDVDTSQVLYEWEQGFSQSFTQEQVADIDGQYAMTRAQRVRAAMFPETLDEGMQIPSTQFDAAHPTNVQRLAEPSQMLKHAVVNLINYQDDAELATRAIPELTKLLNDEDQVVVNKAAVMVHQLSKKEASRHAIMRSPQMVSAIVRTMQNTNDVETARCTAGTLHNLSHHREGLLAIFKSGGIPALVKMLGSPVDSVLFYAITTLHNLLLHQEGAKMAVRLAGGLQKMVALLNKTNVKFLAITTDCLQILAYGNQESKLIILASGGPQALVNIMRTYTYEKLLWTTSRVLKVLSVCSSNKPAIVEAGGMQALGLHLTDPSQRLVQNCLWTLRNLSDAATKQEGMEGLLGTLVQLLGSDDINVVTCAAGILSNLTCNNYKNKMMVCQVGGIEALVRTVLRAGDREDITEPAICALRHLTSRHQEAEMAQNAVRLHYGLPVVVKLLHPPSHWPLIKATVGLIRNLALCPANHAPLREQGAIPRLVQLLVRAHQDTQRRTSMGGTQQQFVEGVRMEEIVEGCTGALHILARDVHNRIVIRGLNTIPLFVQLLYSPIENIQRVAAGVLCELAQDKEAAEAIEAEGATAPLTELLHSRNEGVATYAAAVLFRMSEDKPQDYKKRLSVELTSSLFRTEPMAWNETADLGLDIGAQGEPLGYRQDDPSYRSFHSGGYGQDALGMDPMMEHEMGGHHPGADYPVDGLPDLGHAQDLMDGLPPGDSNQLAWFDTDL

T2: full-length beta-Catenin (Uniprot ID P35222) (Homo sapiens (Human), UniProt P35222 1-781)
T2 construct: The assay protocols call it full-length; also called B-Catenin; bCat
T2 sequence: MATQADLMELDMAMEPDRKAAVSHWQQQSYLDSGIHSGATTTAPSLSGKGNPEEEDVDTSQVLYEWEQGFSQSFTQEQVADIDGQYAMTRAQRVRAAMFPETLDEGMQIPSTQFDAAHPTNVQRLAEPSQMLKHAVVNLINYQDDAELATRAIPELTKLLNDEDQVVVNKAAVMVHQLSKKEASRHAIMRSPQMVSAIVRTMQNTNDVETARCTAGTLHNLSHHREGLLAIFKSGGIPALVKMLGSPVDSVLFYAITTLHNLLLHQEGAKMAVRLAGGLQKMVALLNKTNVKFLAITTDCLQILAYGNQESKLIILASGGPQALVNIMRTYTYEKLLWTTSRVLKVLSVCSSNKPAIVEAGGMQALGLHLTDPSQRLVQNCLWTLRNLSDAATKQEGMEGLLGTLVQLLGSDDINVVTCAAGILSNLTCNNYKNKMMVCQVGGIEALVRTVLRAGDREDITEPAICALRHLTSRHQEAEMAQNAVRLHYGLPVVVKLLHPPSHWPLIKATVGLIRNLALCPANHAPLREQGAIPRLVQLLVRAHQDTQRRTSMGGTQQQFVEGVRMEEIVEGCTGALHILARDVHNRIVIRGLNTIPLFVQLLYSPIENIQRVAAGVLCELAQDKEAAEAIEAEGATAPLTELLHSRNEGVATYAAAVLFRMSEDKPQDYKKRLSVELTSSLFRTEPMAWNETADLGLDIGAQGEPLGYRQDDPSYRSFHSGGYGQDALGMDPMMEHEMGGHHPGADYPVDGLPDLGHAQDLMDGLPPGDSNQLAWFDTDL


Target: T1, full-length beta-Catenin (Uniprot ID …)
Assay: fluorescence polarization competition; full-length beta-catenin, competitor 5FAM-TCF4(10-53) probe
Procedure: (§1) The plate was incubated protected from light for 60 minutes at 20° C. prior to read. Reads were performed on a CLARIOstar plate reader (BMG Labtech) in duplicate, and data were fitted to a 1:1 binding model with hill slope using an in-house script. All provided concentrations are final concentrations.

| EC50 | Binder |
| --- | --- |
| 5 µM | Ac-[αAllylPro]DI[B5(24)]DEAA[Bta]Q[S8]FFQ-NH2 (staple 1-4, 4-11; not fully specified; printed as Ac-PL3-Asp-Ile-B5-Asp-Glu-Ala-Ala-BztA-Gln-S8-Phe-Phe-Gln-NH2, Stapled peptide composition) [I-586] |
| 0.013 µM | XDLXDEAAFNXFXQ (not fully specified; Ac-PL3-Asp-Leu-B5-Asp-Glu-Ala-Ala-Phe-Asn-S8-Phe-BztA-Gln-NH2; stapled PL3(1)-B5(4) and B5(4)-S8(11) by olefin metathesis, Stapled peptide composition; same description as I-576, later eluting HPLC peak (staple isomer)) [I-577] |
| 5 µM | Ac-[αAllylPro]FI[B5(24)]DEAADQ[S8]F[Bta]Q-NH2 (staple 1-4, 4-11, Stapled peptide composition) [I-588] |
| 0.112 µM | XDIXDDAAFQXFXH (not fully specified; Ac-PL3-Asp-Ile-B5-Asp-Asp-Ala-Ala-Phe-Gln-S8-Phe-BztA-His-NH2; stapled PL3(1)-B5(4) and B5(4)-S8(11) by olefin metathesis, Stapled peptide composition; same description as I-580, later eluting HPLC peak (staple isomer)) [I-581] |
| 5 µM | XDAXDDAAFQXFXQ (not fully specified; Ac-PL3-Asp-Ala-B5-Asp-Asp-Ala-Ala-Phe-Gln-S8-Phe-BztA-Gln-NH2; stapled PL3(1)-B5(4) and B5(4)-S8(11) by olefin metathesis, Stapled peptide composition; the description may be misprinted) [I-578] |
| 5 µM | Ac-FDA[R8]DDAAFQ[PyrS]FWQ-NH2 (staple 4-11; not fully specified; printed as Ac-Phe-Asp-Ala-R8-Asp-Asp-Ala-Ala-Phe-Gln-PyrS-Phe-Trp-Gln-NH2, Stapled peptide composition) [I-579] |
| 0.114 µM | Ac-[αAllylPro]DI[B5]DDAAFQ[S8]F[Bta]H-NH2 (staple 1-4, 4-11; not fully specified, Stapled peptide composition) [I-580] |
| 5 µM | Ac-[αAllylPro]DI[B5(24)]FEAAFQ[S8]D[Bta]Q-NH2 (staple 1-4, 4-11, Stapled peptide composition) [I-587] |
| 0.023 µM | XDLXDEAAFNXFXQ (not fully specified; Ac-PL3-Asp-Leu-B5-Asp-Glu-Ala-Ala-Phe-Asn-S8-Phe-BztA-Gln-NH2; stapled PL3(1)-B5(4) and B5(4)-S8(11) by olefin metathesis, Stapled peptide composition; same description as I-577, earlier eluting HPLC peak (staple isomer)) [I-576] |
| 5 µM | Ac-[αAllylPro]DI[B5(24)]DEAA[Bta]Q[S8]FFQ-NH2 (staple 1-4, 4-11; not fully specified, Stapled peptide composition) [I-585] |

Target: T2, full-length beta-Catenin (Uniprot ID …)
Assay: AlphaScreen competition; full-length beta-catenin with biotin-labelled TCF4 10-53 peptide as competitor
Procedure: as §1, with “Equal volume of the titrated peptide was added to the” for “The”, “and” for “was”, “incubated for 15 minutes at 20° C. Then 4 uL of donor and 4 uL acceptor beads at 10 ug/mL were added to the plate, for a 16 uL reaction pool and” for “incubated”

| EC50 | Binder |
| --- | --- |
| 1.89 µM | Ac-[αAllylPro]DA[B5(17)]D[hTyr]AAFV[S8]FWQ-NH2 (staple 1-4, 4-11, Stapled (stitched) peptide; also called Ac-PL3-Asp-Ala-B5-Asp-hTyr-Ala-Ala-Phe-Val-S8-Phe-Trp-Gln-NH2) [I-273] |
| 9.21 µM | Ac-[αAllylPro]DA[B5(4)]D[6F1NapA]AAFV[S8]FWQ-NH2 (staple 1-4, 4-11, Stapled (stitched) peptide; also called Ac-PL3-Asp-Ala-B5-Asp-6F1NapA-Ala-Ala-Phe-Val-S8-Phe-Trp-Gln-NH2) [I-256] |
| 1.01 µM | Ac-[αAllylPro]DA[B5(17)]D[4Pal]AAFV[S8]FWQ-NH2 (staple 1-4, 4-11, Stapled (stitched) peptide; also called Ac-PL3-Asp-Ala-B5-Asp-4PyrA-Ala-Ala-Phe-Val-S8-Phe-Trp-Gln-NH2) [I-272] |
| 5.31 µM | Ac-[αAllylPro]DA[B5(17)]DDAAFV[S8][hTyr]WQ-NH2 (staple 1-4, 4-11, Stapled (stitched) peptide; also called Ac-PL3-Asp-Ala-B5-Asp-Asp-Ala-Ala-Phe-Val-S8-hTyr-Trp-Gln-NH2) [I-269] |
| 3.81 µM | Ac-[αAllylPro]DA[B5(4)]D[Phe(3-F)]AAFV[S8]FWQ-NH2 (staple 1-4, 4-11, Stapled (stitched) peptide; also called Ac-PL3-Asp-Ala-B5-Asp-3FF-Ala-Ala-Phe-Val-S8-Phe-Trp-Gln-NH2) [I-257] |
| 4.96 µM | XEAXDDAAFVXFWQ (not fully specified; N-terminal Ac; PL3 at 1; B5 at 4; S8 at 11; C-terminal NH2; staples PL3(1)-B5(4) and B5(4)-S8(11) by olefin metathesis, Stapled (stitched) peptide; also called Ac-PL3-Glu-Ala-B5-Asp-Asp-Ala-Ala-Phe-Val-S8-Phe-Trp-Gln-NH2) [I-279] |
| 3.05 µM | XEAXDDAAFVXFWQ (not fully specified; N-terminal Ac; PL3 at 1; B5 at 4; S8 at 11; C-terminal NH2; staples PL3(1)-B5(4) and B5(4)-S8(11) by olefin metathesis, Stapled (stitched) peptide; also called Ac-PL3-Glu-Ala-B5-Asp-Asp-Ala-Ala-Phe-Val-S8-Phe-Trp-Gln-NH2) [I-280] |
| 9.54 µM | Ac-[αAllylPro]DA[B5(4)]DDAAFV[S8]DWQ-NH2 (staple 1-4, 4-11, Stapled (stitched) peptide; also called Ac-PL3-Asp-Ala-B5-Asp-Asp-Ala-Ala-Phe-Val-S8-Asp-Trp-Gln-NH2) [I-283] |

From US20240116985A1 (published 2024)
